Measurements taken from the supplement of paper PMC7877785.
± gives the uncertainty stated by the source.

Experiment: self-splicing fitness, log relative to wild type (ln ratio); higher = more splicing; Tetrahymena group I intron in knt gene, E. coli kanamycin selection, DiMSum; sequences stand for … in CUCUCU…GGAGGGAAAAGUUAUCAGGCAUGCACCUGGUAGCUAGUCUUUAAACCAAUAGAUUGCAUCGGUUUAAAAGGCAAGACCGUCAAAUUGCGGGAAAGGGGUCAACAGCCGUUCAGUACCAAGUCUCAGGGGAAACUUUGAGAUGGCCUUGCAAAGGGUAUGGUAAUAAGCUGACGGACAUGGUCCUAACCACGCAGCCAAGUCCUAAGUCAACAGAUCUUCUGUUGAUAUGGAUGCAGUUCACAGACUAAAUGUCGGUCGGGGAAGAUGUAUUCUUCUCAUAAGAUAUAGUCGGACCUCUCCUUAAUGGGAGCUAGCGGAUGAAGUGAUGCAACACUGGAGCCGCUGGGAACUAAUUUGUAUGCGAAAGUAUAUUGAUUAGUUUUGGAGUACUCGUGGUCG
Procedure, shortened: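 Pooled colonies went to amplicon sequencing on an Illumina HiSeq 2500 after six replicate transformations. The plates were LB agar with 100 μg/mL carbenicillin, 50 μM IPTG and 0.2% rhamnose, with or without 25 μg/mL kanamycin, incubated overnight at 37°C or 30°C. The E. coli BL21(DE3) library had all eight P1ex-region intron nucleotides randomised, the intron placed in the knt kanamycin-resistance gene on pET-22b(+). DiMSum fitness is the error-weighted combination of replicate fold changes, kanamycin against none, normalised to wild type.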

Sequence | self-splicing fitness (ln) (30 °C) | self-splicing fitness (ln) (37 °C)
CAAAAGCAAUAUUACGAAAU | -3.75 ± 0.17 | -2.89 ± 0.23
CAAAAGCAAUAUUACGAAGA | -2.23 ± 0.28 | -1.43 ± 0.17
CAAAAGCAAUAUUACGACCA | -1.95 ± 0.2 | -1.48 ± 0.19
CAAAAGCAAUAUUACGACGA | -0.512 ± 0.09 | -0.343 ± 0.094
CAAAAGCAAUAUUACGAUAA | -2.29 ± 0.1 | -0.871 ± 0.099
CAAAAGCAAUAUUACGAUCA | -1.42 ± 0.12 | -1.25 ± 0.12
CAAAAGCAAUAUUACGAUCU | -2.14 ± 0.078 | -0.593 ± 0.09
CAAAAGCAAUAUUACGAUUA | -0.53 ± 0.084 | -0.187 ± 0.087
CAAAAGCAAUAUUACGCACU | -1.57 ± 0.091 | -0.654 ± 0.089
CAAAAGCAAUAUUACGCCCA | -1.69 ± 0.21 | -0.538 ± 0.2
CAAAAGCAAUAUUACGCCGG | -0.401 ± 0.098 | -0.104 ± 0.13
CAAAAGCAAUAUUACGCCUC | -3.57 ± 0.29 | -1.76 ± 0.25
CAAAAGCAAUAUUACGCGGU | -3.58 ± 0.2 | -2.46 ± 0.24
CAAAAGCAAUAUUACGCUAA | -3.66 ± 0.25 | -2.1 ± 0.21
CAAAAGCAAUAUUACGCUAG | -3.12 ± 0.12 | -2.26 ± 0.14
CAAAAGCAAUAUUACGGCAA | -1.96 ± 0.17 | -0.93 ± 0.14
CAAAAGCAAUAUUACGGCAC | -2.9 ± 0.14 | -2.09 ± 0.15

Sequence | self-splicing fitness (ln) (30 °C) | self-splicing fitness (ln) (37 °C)
CAAAAGCAAUAUUACGGCAG | 0.126 ± 0.077 | -0.164 ± 0.089
CAAAAGCAAUAUUACGGCCU | -1.44 ± 0.14 | -1.25 ± 0.12
CAAAAGCAAUAUUACGGCGG | -0.363 ± 0.061 | -0.395 ± 0.079
CAAAAGCAAUAUUACGGCUA | -0.892 ± 0.088 | -0.809 ± 0.083
CAAAAGCAAUAUUACGGUAA | -1.91 ± 0.12 | -1.45 ± 0.15
CAAAAGCAAUAUUACGGUGU | -4.34 ± 0.22 | -2.36 ± 0.19
CAAAAGCAAUAUUACGUACC | -2.56 ± 0.15 | -1.33 ± 0.15
CAAAAGCAAUAUUACGUUAC | -3.12 ± 0.22 | -2.33 ± 0.23
CAAAAGCAAUAUUACGUUAG | -1.57 ± 0.064 | -0.632 ± 0.084
CAAAAGCAAUAUUACGUUCG | -0.43 ± 0.051 | 0.246 ± 0.066
CAAAAGCAAUAUUACGUUGG | -2.47 ± 0.088 | -1.48 ± 0.1
CAACAGCAAUAUUACGAAAC | -3.87 ± 0.2 | -2.01 ± 0.17
CAACAGCAAUAUUACGAAAG | -0.908 ± 0.053 | 0.316 ± 0.079
CAACAGCAAUAUUACGAAUG | -1.04 ± 0.058 | -0.229 ± 0.074
CAACAGCAAUAUUACGACAC | -2.93 ± 0.18 | -1.79 ± 0.18
CAACAGCAAUAUUACGACCU | -1.18 ± 0.12 | -0.29 ± 0.12
